# In paper doi:10.1101/188136 (bioRxiv, 2017):
# B1: BrlR (transcriptional regulator BrlR from Pseudomonas aeruginosa) (natural protein, UniProt Q9HUT5 1-270, looked up)
# chain: MLTIGQLARIFEISTKTLRHYDAIGLFVPARTGSDNGYRYYQPEQIEQLSRILALRRLDVPLEAIDRLKRDGALDDPQRLRHFLQRHQHTLREEISARQRLLAELDRTLATLAHWRIRNMHARIVERPAFSVVGMEYFGSAPGDTIGQLWERFIPREHEIAGKHDPEVSYGICAQQPNGEFHYVAGFEVQEGWPVPEGMVRFQVPAQKYAVFTHKGTAPQIAESFQAIYSHLLAERGLEPKAGVDFEYYDQRFRGPLDPNSQVDLYIPIY
# Molecular target: the molecule itself
# Test: crystal structure
protein,measurement,value
B1,stoichiometry N,4
